How the values were obtained:
[1] = molecular target: Crotalus durissus terrificus (C.d.t.) venom; assay: ELISA on C.d.t. venom; dilution 1:62,500
[2] = molecular target: Crotalus durissus terrificus (C.d.t.) venom; assay: ELISA on C.d.t. venom; dilution 1:312,500

Substance: preimmune IgY (antibody)
- ELISA absorbance [1]: 0.001 absorbance
- ELISA absorbance [2]: 0.01 absorbance
